Source: the supplement of paper PMC9732359
± gives the uncertainty stated by the source.

Test: protein stability index of a GFP-peptide fusion (yeast GPS) (PSI 1-4); higher = more stable; sorted into four equal gates, so the index is relative within each strain
Procedure, shortened: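 For each peptide, the protein stability index sums the read frequency in every gate after multiplying it by the gate number. Read frequencies came from plasmids that were PCR-amplified from each gate and Illumina-sequenced, with reads assigned to strains by barcodes. The gates were four equal bins of GFP/Cherry fluorescence ratio applied to mid-log yeast in leucine-free medium carrying a pooled library of tiled 17-residue yeast protein peptides fused downstream of GFP on a Cherry-expressing plasmid.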

| Sequence | protein stability index (doa10∆) | protein stability index (pdr5∆) | protein stability index (san1∆) | protein stability index (ubr1∆) |
| --- | --- | --- | --- | --- |
| PKNYSLHGLRSFYDAIF [YJL039C/NUP192] | 2.53 ± 0.042 | 2.61 ± 0.041 | 2.37 ± 0.043 | 2.4 ± 0.041 |
| QEPFLNSSNYAELFNND [PRP8] | 2.61 ± 0.051 | 2.86 ± 0.046 | 2.55 ± 0.071 | 2.82 ± 0.048 |
| ASLDGTIRLWECGTGTT [RPN14] | 2.8 ± 0.093 | 2.91 ± 0.13 | 3.19 ± 0.069 | 2.78 ± 0.12 |
| SRYILFEIIFPPTDTNV [POP5] | 1.54 ± 0.069 | 1.41 ± 0.052 | 1.53 ± 0.086 | 1.77 ± 0.047 |
| QDSIFQRIIADLSADKP [SRB8] | 2.63 ± 0.046 | 2.56 ± 0.057 | 2.59 ± 0.048 | 2.52 ± 0.032 |
| EKLVSDLRLIKVPQQAA [SMC1] | 3.19 ± 0.18 | 3.44 ± 0.16 | 2.16 ± 0.24 | 3.3 ± 0.14 |
| KIESLAGGGESDSALIL [UBP6] | 3.25 ± 0.18 | – | 3.49 ± 0.11 | 3.12 ± 0.25 |
| SRKGIAFGLGAIMSKSS [ECM29] | 1.61 ± 0.058 | 1.86 ± 0.054 | 1.64 ± 0.08 | 1.74 ± 0.036 |
| AEDGSRSTKDMIDAVFE [SNF6] | 3.18 ± 0.06 | 3.38 ± 0.048 | 3.31 ± 0.042 | 3.14 ± 0.046 |
| KLISAFDDLEVEELPTF [RRP42] | 2.57 ± 0.06 | 2.84 ± 0.05 | 2.5 ± 0.066 | 2.85 ± 0.036 |
| KLFTTNELMRWPIVQKT [RPN5] | 1.79 ± 0.096 | 1.77 ± 0.078 | – | 1.48 ± 0.044 |
| RTHFKRMRFPPFDDDEP [PRP8] | 2.65 ± 0.042 | 3.03 ± 0.047 | 2.91 ± 0.044 | 2.77 ± 0.035 |
| YGEAPTSPGFGVSSPGF [RPO21] | 3.06 ± 0.14 | 3.45 ± 0.14 | 2.93 ± 0.17 | 3.17 ± 0.054 |
| KLLDSGCENPADVFRRC [SRP72] | 2.46 ± 0.058 | 1.72 ± 0.047 | 2.13 ± 0.1 | 2.16 ± 0.071 |
| GKASLFAQGKRRYDRKQ [RPL42A] | 3.28 ± 0.11 | 3.09 ± 0.1 | 3.4 ± 0.088 | 3.4 ± 0.072 |
| QSKLKDVVEYLDKVINK [RPN8] | 2.73 ± 0.094 | 2.32 ± 0.055 | 2.63 ± 0.073 | 2.55 ± 0.046 |
| ISELPPQIRQEIEQLDQ [YGL172W/NUP49] | 2.98 ± 0.084 | 3.06 ± 0.061 | 2.65 ± 0.088 | 3.06 ± 0.049 |
| IRNEGSDAEEEEGEYKN [ISW2] | – | – | – | 3.44 ± 0.11 |
| NYTKDNEYYPMCEQALS [YCS4] | 2.25 ± 0.066 | 2.61 ± 0.087 | 2.6 ± 0.071 | 2.47 ± 0.052 |
| EGKKVMAPYLPGSRASS [RPN2] | 2.47 ± 0.065 | 2.69 ± 0.074 | 2.4 ± 0.072 | 2.54 ± 0.052 |
| RGSSSLYTLVINDAGKA [RPL38] | 1.57 ± 0.061 | 1.26 ± 0.068 | 1.17 ± 0.13 | 1.12 ± 0.086 |
| TPFSFGTANNNSNTTNQ [YJL041W/NSP1] | 3.25 ± 0.054 | 3.21 ± 0.045 | 3.13 ± 0.035 | 3.09 ± 0.041 |
| DEYQAAVEQRKKEKLDS [DPB4] | 3.47 ± 0.13 | 3.34 ± 0.14 | 3.38 ± 0.11 | 3.39 ± 0.095 |
| QSLDTIGGSDAAFEKRY [RPO21] | 3.25 ± 0.095 | 3.38 ± 0.074 | 3.37 ± 0.049 | 3.25 ± 0.06 |
| KDLFELERYYKEQADIY [ARP7] | 3.11 ± 0.09 | 3.34 ± 0.083 | 3.46 ± 0.12 | 3.41 ± 0.067 |
| GKHLSYQRSKRVNNPNV [RPL33A] | 2.32 ± 0.047 | 1.92 ± 0.038 | 2.01 ± 0.069 | 2.78 ± 0.041 |
| EHASLLVRDSKPSKPFN [MED8] | 2.43 ± 0.057 | 2.67 ± 0.046 | 2.56 ± 0.05 | 2.55 ± 0.052 |
